These results are taken from patent publication US20250136694A1 (HARBOUR BIOMED SHANGHAI, published 2025).

Test [1] deals with T1, human B7-H4 on the cell surface (human, UniProt Q7Z7D3 25-282).
T1 construct: whole, on cells; also called hu B7-H4; CHO-K1/huB7-H4
T1 sequence (looked up): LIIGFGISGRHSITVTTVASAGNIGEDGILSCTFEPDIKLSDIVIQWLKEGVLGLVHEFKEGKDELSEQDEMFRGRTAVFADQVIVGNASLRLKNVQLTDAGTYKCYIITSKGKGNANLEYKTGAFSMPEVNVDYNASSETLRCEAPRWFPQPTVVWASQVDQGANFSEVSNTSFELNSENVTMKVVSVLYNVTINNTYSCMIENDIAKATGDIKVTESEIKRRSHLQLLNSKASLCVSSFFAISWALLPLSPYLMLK
The test is described as follows: FACS, MDA-MB-468 cells. The protocol:
(§1) Antibody binding experiments at the cellular level were performed using tumor cells endogenously expressing B7-H4 or primary T cells expressing CD3. MDA-MB-468 cells or human T cells were resuspended in PBS containing 2% BSA. The cell density was adjusted to 1×10⁶ cells/mL. The cells were seeded in a 96-well V-bottom plate (Corning, #3894) at 100 μL/well, followed by the addition of test antibodies 3-fold serially diluted at a concentration that was 2 times the final concentration, each at 100 μL/well. The cells were incubated away from light at 4° C. for 2 h. Then, the cells in each well were rinsed twice with 100 μL of pre-cooled PBS containing 2% BSA and centrifuged at 500 g at 4° C. for 5 min, and then the supernatant was discarded. […] The cells in each well were rinsed twice with 100 μL of pre-cooled PBS containing 2% BSA and centrifuged at 500 g at 4° C. for 5 min, and then the supernatant was discarded. Finally, the cells in each well were resuspended with 200 μL of pre-cooled PBS containing 2% BSA, and the fluorescence signal values were read using an ACEA Novocyte3000 flow cytometer.
The results are shown in Tables 6-1, 6-2, and 6-3 and FIGS. 5A-5F.

Test [2] concerns the target T2, mouse B7-H4 on the cell surface (mouse, UniProt Q7TSP5 25-257).
T2 construct: whole, on cells; also called m B7-H4; CHO-K1/mB7-H4
T2 sequence (looked up): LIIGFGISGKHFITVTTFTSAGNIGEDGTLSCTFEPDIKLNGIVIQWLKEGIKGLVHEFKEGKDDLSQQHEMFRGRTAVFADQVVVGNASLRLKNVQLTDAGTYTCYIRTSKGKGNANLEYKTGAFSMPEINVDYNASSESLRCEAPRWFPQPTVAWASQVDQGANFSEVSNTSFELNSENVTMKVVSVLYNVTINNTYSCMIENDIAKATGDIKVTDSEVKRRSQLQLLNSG
Put plainly: FACS, CHO-K1/m B7-H4 cells.

The target of test [3] is T3, human B7-H4 (protein in solution, BLI) (human, UniProt Q7Z7D3 25-258, limits assumed).
T3 sequence (looked up): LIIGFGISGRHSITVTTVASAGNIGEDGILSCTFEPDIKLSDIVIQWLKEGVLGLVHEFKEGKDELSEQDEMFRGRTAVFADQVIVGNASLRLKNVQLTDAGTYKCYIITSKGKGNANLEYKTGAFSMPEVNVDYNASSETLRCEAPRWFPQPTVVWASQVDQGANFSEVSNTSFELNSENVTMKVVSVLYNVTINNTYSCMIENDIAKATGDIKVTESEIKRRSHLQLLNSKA
Put plainly: BLI (Octet), antibody captured on AHC sensor, antigen in solution. The protocol: The binding kinetics between the antigen and the antibody was analyzed by the biolayer interferometry (BLI) technique using an Octet Red 96e molecular interaction analyzer (Fortebio).
When the affinity of the antigen for the antibody was determined, the rotation speed of the sensor was set at 1000 rpm/min. […] Finally, the AHC sensor was immersed in a 10 mM glycine-hydrochloric acid solution at pH 1.5 for regeneration to elute the proteins bound to the sensor.
When data analysis was performed using Octet Data Analysis software (Fortebio, version 11.0), 0 nM was taken as a reference well, and reference subtraction was performed; the “1:1 Global fitting” method was selected to fit the data, and the kinetics parameters of the binding of antigens to antigen-binding proteins were calculated, with kₒₙ(1/Ms) values, kdis(1/s) values, and KD(M) values obtained (see Table 3 and FIG. 2).
(Biolayer interferometry detects binding as a change in optical thickness at a sensor tip.)

Test [4] has as its target T1, human B7-H4 on the cell surface. The test is described as follows: FACS, MDA-MB-468 cells. As to the method: as §1
The source holds these as a separate data set.

For test [5] the target is unchanged. Put plainly: FACS, CHO-K1/hu B7-H4 cells. The protocol: (§2) This example is intended to investigate the in vitro binding activity of the CD3 bispecific antibodies of B7-H4 for human, cynomolgus monkey, and mouse B7-H4. Antibody binding experiments at the cellular level were conducted using a CHO-K1 cell strain overexpressing human B7-H4 (CHO-K1/huB7-H4, Harbour BioMed), a CHO-K1 cell strain overexpressing cynomolgus monkey B7-H4 (CHO-K1/cynoB7-H4, Harbour BioMed), and a CHO-K1 cell strain overexpressing mouse B7-H4 (CHO-K1/mB7-H4, Harbour BioMed). Briefly, cells were digested and resuspended in PBS containing 2% FBS, and the cell density was adjusted to 1×10⁶ cells/mL. The cells were seeded in a 96-well V-bottom plate (Corning, Cat #3894) at 100 μL/well, followed by the addition of test antibodies 3-fold serially diluted at a concentration that was 2 times the final concentration, each at 100 μL/well. The cells were incubated away from light at 4° C. for 2 h. Then, the cells in each well were rinsed twice with 100 μL of pre-cooled PBS and centrifuged at 500 g at 4° C. for 5 min, and then the supernatant was discarded. […] The cells in each well were then rinsed twice with 100 μL of pre-cooled PBS and centrifuged at 500 g at 4° C. for 5 min, and then the supernatant was discarded. Finally, the cells in each well were resuspended in 200 μL of pre-cooled PBS, and the fluorescence signal values were read using ACEA Novocyte3000.
For orientation: A flow cytometer gives signals particle by particle.

Test [6] deals with T4, cynomolgus monkey B7-H4 on the cell surface (cynomolgus monkey, UniProt A0A2K5U6P5 25-282).
T4 construct: whole, on cells; also called cyno B7-H4; CHO-K1/cynoB7-H4
T4 sequence: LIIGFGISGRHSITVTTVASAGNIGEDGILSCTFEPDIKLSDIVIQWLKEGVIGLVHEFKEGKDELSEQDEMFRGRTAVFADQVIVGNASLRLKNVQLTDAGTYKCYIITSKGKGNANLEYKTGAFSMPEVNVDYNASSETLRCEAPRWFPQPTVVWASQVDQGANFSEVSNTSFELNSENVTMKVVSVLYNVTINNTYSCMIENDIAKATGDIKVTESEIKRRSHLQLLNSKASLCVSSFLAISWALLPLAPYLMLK
Put plainly: FACS, CHO-K1/cyno B7-H4 cells. As to the method:
as §2

In test [7] the target is T2, mouse B7-H4 on the cell surface. Put plainly: FACS, CHO-K1/m B7-H4 cells. As to the method: as §2
The source holds these as a separate data set.

B1: PR006391 (bispecific antibody, human IgG1, lambda)
light: QAVVTQEPSLTVSPGGTVTLTCRSSTGAVTTSNYANWVQQKPGQAPRGLIGGTNKRAPWTPARFSGSLLGDKAALTLLGAQPEDEAEYFCALWYSNLWVFGGGTKLTVLGQPKAAPSVTLFPPSSEELQANKATLVCLISDFYPGAVTVAWKADSSPVKAGVETTTPSKQSNNKYAASSYLSLTPEQWKSHRSYSCQVTHEGSTVEKTVAPTECS
heavy: EVQLVESGGGLVQPGGSLKLSCAASGFTFSTYAMNWVRQASGKGLEWVGRIRSKYNNYATYYADSVKDRFTISRDDSKNTAYLQMNSLKTEDTAVYYCTRHGNFGNSYVSWFAYWGQGTLVTVSSASTKGPSVFPLAPSSKSTSGGTAALGCLVKDYFPEPVTVSWNSGALTSGVHTFPAVLQSSGLYSLSSVVTVPSSSLGTQTYICNVNHKPSNTKVDKKVEPKSCDKTHTCPPCPAPEAAGAPSVFLFPPKPKDTLMISRTPEVTCVVVDVSHEDPEVKFNWYVDGVEVHNAKTKPREEQYNSTYRVVSVLTVLHQDWLNGKEYKCKVSNKALPAPIEKTISKAKGQPREPQVYTLPPCREEMTKNQVSLWCLVKGFYPSDIAVEWESNGQPENNYKTTPPVLDSDGSFFLYSKLTVDKSRWQQGNVFSCSVMHEALHNHYTQKSLSLSPGK
chain: EVQLVESGGGLVQPGGSLRLSCAASGFAFSNYWMHWARQVPGKGRVWISRISGDSRSTSYADSVKGRFTISRDNAKNMVYLQMNNLRAEDTAVYYCARDRFGDDYYYGMNVWGQGTTVTVSSGGGGSGGGGSGGGGSEVQLVESGGGLVQPGGSLRLSCAASGFAFSNYWMHWARQVPGKGRVWISRISGDSRSTSYADSVKGRFTISRDNAKNMVYLQMNNLRAEDTAVYYCARDRFGDDYYYGMNVWGQGTTVTVSSASEPKSSDKTHTCPPCPAPEAAGAPSVFLFPPKPKDTLMISRTPEVTCVVVDVSHEDPEVKFNWYVDGVEVHNAKTKPREEQYNSTYRVVSVLTVLHQDWLNGKEYKCKVSNKALPAPIEKTISKAKGQPREPQVCTLPPSREEMTKNQVSLSCAVKGFYPSDIAVEWESNGQPENNYKTTPPVLDSDGSFFLVSKLTVDKSRWQQGNVFSCSVMHEALHNHYTQKSLSLSPGK
notes: also called B7-H4xCD3 bispecific antibody; PR003886 Fab + bivalent PR007440
In general, EC50 refers to the concentration that produces a half-maximal response. A word on the Kd: it is the constant that tells how readily two partners part at equilibrium. Broadly, the koff is the rate constant with which the complex falls apart. What is called kon is the rate constant with which the complex forms. B1: the concentration for a half-maximal effect (EC50) in test [1] was found to be 19.1 nM; in test [4], 15.8 nM; in test [5], 3.54 nM; in test [6], 3.79 nM. In addition, in test [2], the binding result is “no binding”. This molecule also had a dissociation constant Kd in test [3] of 3.75 nM. The same molecule gave an off-rate (koff) in test [3] of 0.000339 s⁻¹. The same molecule came in with a kon in test [3] of 90400 M⁻¹ s⁻¹.

B2: PR005885 (bispecific antibody, human IgG1, lambda)
light: QAVVTQEPSLTVSPGGTVTLTCRSSTGAVTTSNYANWVQQKPGQAPRGLIGGTNKRAPWTPARFSGSLLGDKAALTLLGAQPEDEAEYFCALWYSNLWVFGGGTKLTVLGQPKAAPSVTLFPPSSEELQANKATLVCLISDFYPGAVTVAWKADSSPVKAGVETTTPSKQSNNKYAASSYLSLTPEQWKSHRSYSCQVTHEGSTVEKTVAPTECS
heavy: EVQLVESGGGLVQPGGSLKLSCAASGFTFSTYAMNWVRQASGKGLEWVGRIRSKYNNYATYYADSVKDRFTISRDDSKNTAYLQMNSLKTEDTAVYYCTRHGNFGNSYVSWFAYWGQGTLVTVSSASTKGPSVFPLAPSSKSTSGGTAALGCLVKDYFPEPVTVSWNSGALTSGVHTFPAVLQSSGLYSLSSVVTVPSSSLGTQTYICNVNHKPSNTKVDKKVEPKSCDKTHTCPPCPAPEAAGAPSVFLFPPKPKDTLMISRTPEVTCVVVDVSHEDPEVKFNWYVDGVEVHNAKTKPREEQYNSTYRVVSVLTVLHQDWLNGKEYKCKVSNKALPAPIEKTISKAKGQPREPQVYTLPPCREEMTKNQVSLWCLVKGFYPSDIAVEWESNGQPENNYKTTPPVLDSDGSFFLYSKLTVDKSRWQQGNVFSCSVMHEALHNHYTQKSLSLSPGK
scFv: EIVMTQSPASLSVSPGERATLSCRASQSVSSNLAWYQQKPGQAPRLLIYGASTRATGIPARVSGGGSGTEFTLTISSLQSEDFAVYYCQQYKNWPFTFGPGTKLEIKGGGGSGGGGSGGGGSGGGGSQVQLVQSGAEVKKPGSSMRVSCKASEDTFSSYAISWVRQAPGQGLEWMGGTAPIFGTTNYAQKFQGRVTITADKSTSTAYMELSSLRSEDTAVYYCARGGPYFDYWGQGTLVTVSSASEPKSSDKTHTCPPCPAPEAAGAPSVFLFPPKPKDTLMISRTPEVTCVVVDVSHEDPEVKFNWYVDGVEVHNAKTKPREEQYNSTYRVVSVLTVLHQDWLNGKEYKCKVSNKALPAPIEKTISKAKGQPREPQVCTLPPSREEMTKNQVSLSCAVKGFYPSDIAVEWESNGQPENNYKTTPPVLDSDGSFFLVSKLTVDKSRWQQGNVFSCSVMHEALHNHYTQKSLSLSPGK
notes: Chain-3 is the VL-linker-VH scFv of anti-B7-H4 antibody PR003366 fused to hinge-CH2-CH3 (hole); also called B7-H4xCD3 bispecific antibody; 1+1 Fab-Fc-scFv
On to B2, for which the EC50 was 92.6 nM in test [4], 4.79 nM in test [5], 5.92 nM in test [6] and 37 nM in test [7].
